Measurements published in article PMC4515144 (Chemistry & biology, 2015).
*: point of attachment. P‑1 benzyl acid (p-CN) = benzyl acid lacking the N-terminal amino group (p-cyano substituted), replacing Tyr at P-1, N#Cc1ccc(CCC(=O)*)cc1; P‑1 benzyl acid (p-SO2NH2) = p-sulfonamide (SO2NH2) benzyl acid lacking the N-terminal amino group, replacing Tyr P-1; P‑1 benzyl acid (m-CH3) = m-methyl benzyl acid lacking the N-terminal amino group, replacing Tyr P-1; P‑1 benzyl acid (m-Cl) = m-chloro benzyl acid lacking the N-terminal amino group, replacing Tyr P-1; P‑1 benzyl acid (m-F) = m-fluoro benzyl acid lacking the N-terminal amino group, replacing Tyr P-1; P‑1 benzyl acid (p-NH2) = benzyl acid at P-1 lacking the N-terminal amino group, replacing Tyr P-1; Propanoyl(3-(4-F-phenyl)) = O=C(CCc1ccc(F)cc1)*

Columns and labels:
[1] = biological target: EphA2-LBD (residues 27-200) (Homo sapiens, UniProt P29317); assay: 1D 1H-aliph NMR binding assay, rank ordering; conditions: 10 μM EphA2-LBD, 100 μM compound; arbitrary scale 1 to 5
[2] = Plasma stability by LC-MS; conditions: rat plasma, 37 °C; 123B7 versus YSA, 123B4 versus YSA-9mer
[3] = mice; ref Singla et al., 2002; Zhang et al., 2013; cited from earlier work
[4] = cited from earlier work
[5] = biological target: EphA2 ligand binding domain (residues 27-200) (UniProt P29317 27-200); assay: NMR titration
EphA2 ligand binding domain (residues 27-200), sequence (P29317 27-200): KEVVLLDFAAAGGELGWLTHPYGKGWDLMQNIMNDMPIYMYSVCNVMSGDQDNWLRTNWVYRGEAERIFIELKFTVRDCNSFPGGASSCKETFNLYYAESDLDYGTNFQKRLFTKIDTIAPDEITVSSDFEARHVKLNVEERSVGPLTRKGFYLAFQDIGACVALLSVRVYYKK

EphA2-LBD (residues 27-200), sequence (P29317 27-200): as above

Molecule | Rank ordering by NMR [5] | further results
120H5 ({P‑1 benzyl acid (p-NH2)}-SAYPDSVP-NH2) |  | Rank ordering by NMR [1]: 1
CSCC[C@H](NC(=O)[C@H](CCSC)NC(=O)[C@@H]1CCCN1C(=O)[C@@H](NC(=O)[C@H](CO)NC(=O)[C@H](CC(=O)O)NC(=O)[C@@H]1CCCN1C(=O)[C@H](Cc1ccc(O)cc1)NC(=O)[C@H](C)NC(=O)[C@H](CO)NC(=O)COc1ccc(F)c(Cl)c1)C(C)C)C(=O)N[C@@H](CO)C(N)=O [123B7] |  | plasma stability versus corresponding non-optimized peptide [2]: significantly improved peptide stability
CC(=O)O[C@H]1C(=O)[C@@]2(C)[C@H]([C@H](OC(=O)c3ccccc3)[C@]3(O)C[C@H](OC(=O)[C@H](O)[C@@H](NC(=O)c4ccccc4)c4ccccc4)C(C)=C1C3(C)C)[C@]1(OC(C)=O)CO[C@@H]1C[C@@H]2O [PTX, paclitaxel] |  | single dose MTD [3]: < 30 mg/kg
ySAYPDSVP-Nle-Hsr-S [dYNH] |  | half-life in plasma [4]: > 1 h
{P‑1 benzyl acid (m-F)}-SAYPDSVP-NH2 [120G7] | 2 rank, arbitrary scale 1-5 | 
{P‑1 benzyl acid (m-CH3)}-SAYPDSVP-NH2 [123A12] | 4 rank, arbitrary scale 1-5 | 
{P‑1 benzyl acid (p-SO2NH2)}-SAYPDSVP-NH2 [120H8] | 3 rank, arbitrary scale 1-5 | 
{P‑1 benzyl acid (m-Cl)}-SAYPDSVP-NH2 [120G8] | 4 rank, arbitrary scale 1-5 | 
{Propanoyl(3-(4-F-phenyl))}-SAYPDSVP-NH2 [120F11] | 2 rank, arbitrary scale 1-5 | 
{P‑1 benzyl acid (p-CN)}-SAYPDSVP-NH2 [120A5] | 3 rank, arbitrary scale 1-5 | 
{P‑1 benzyl acid (p-NH2)}-SAYPDSVP-NH2 [120H5] | 1 rank, arbitrary scale 1-5 | 
